Patent publication US20080305517A1, “Transglutaminase Crosslinked Collagen Biomaterial for Medical Implant Materials” (ASTON UNIVERSITY, priority 2004, published 2008)

B1: mTG: Microbial transglutaminase from Streptoverticillium mobaraenase, purified from Activa WM (Ajinomoto) (protein, UniProt P81453 77-407, looked up)
Protein-glutamine …: DSDDRVTPPAEPLDRMPDPYRPSYGRAETVVNNYIRKWQQVYSHRDGRKQQMTEEQREWLSYGCVGVTWVNSGQYPTNRLAFASFDEDRFKNELKNGRPRSGETRAEFEGRVAKESFDEEKGFQRAREVASVMNRALENAHDESAYLDNLKKELANGNDALRNEDARSPFYSALRNTPSFKERNGGNHDPSRMKAVIYSKHFWSGQDRSSSADKRKYGDPDAFRPAPGTGLVDMSRDRNIPRSPTSPGEGFVNFDYGWFGAQTEADADKTVWTHGNHYHAPNGSLGAMHVYESKFRNWSEGYSDFDRGAYVITFIPKSWNTAPDKVKQGWP

What was measured:
[1] = tested on: Type I collagen; assay: Collagen fibril formation rate (turbidity at 325 nm), type I collagen; format: biochemical, calf
Experimental: FIG. 1. Type I collagen fibrillogenesis after neutralisation in the presence of transglutaminases. Collagen (3 mg/ml) was neutralised as in the methods and was treated with 0, 50 or 250 μg/ml of microbial TG (A) or tTG (B). 500 μM of the TGase inhibitor N-Benzyloxycarbonyl-L-phenylalanyl-6-dimethyl-sulfonium-5-oxo-L-norleucine (‘R281’) was used to confirm that the effects were due to transglutaminase activity. The absorbance at 325 nm was measured using a PYE Unicam SP1800 UV spectrophotometer. The temperature was controlled at 25° C. using a Techne C-85A circulator. Results are from the average of 3 independent experiments.
(§1) Collagen fibrillogenesis was monitored by measuring the absorbance (turbidity) at 325 nm using a PYE Unicam SP1800 UV spectrophotometer.

[2] = tested on: Type III collagen; assay: Collagen fibril formation rate (turbidity at 325 nm), type III collagen; format: biochemical
Experimental: FIG. 2. Type III collagen fibrillogenesis after neutralisation in the presence of transglutaminases. Collagen (3 mg/ml) was neutralised as in the methods and was treated with 0, 50 or 250 μg/ml of mTG (A) or tTG (B). 500 μM inhibitor R281 was used to confirm that the effects were due to transglutaminase activity. The absorbance at 325 nm was measured using a PYE Unicam SP1800 UV spectrophotometer. The temperature was controlled at 25° C. using a Techne C-85A circulator. Results are from the average of 3 independent experiments.
as §1

[3] = tested on: N,N′-dimethylcasein; assay: Transglutaminase activity: incorporation of [14-C]-putrescine into N,N′-dimethylcasein; format: biochemical; settings: Unit = 1 nmol of putrescine incorporated per hour
From the text: The incorporation of [14-C]-putrescine into N,N′-dimethylcasein, as described earlier by Lorand et al. (1972) was used to assay for TG activity and monitor the effects of the inhibitors. Unit of transglutaminase activity is 1 nmol of putrescine incorporated per hour.

[4] = Determination of ε-(γ-glutamyl)lysine cross-link (ion exchange amino acid analysis of digested collagen); format: physicochemical; settings: for the equivalent (μg of protein) TG concentration
Experimental: Neutralised collagen mixture was subjected to treatment by both tissue and microbial TG. Samples of the neutralised collagen were treated with 50-1000 μg/ml of tTG, in a reaction mix consisting of 2 mM DTT and 5 mM CaCl2 in 10 mM Tris buffer (pH 7.4). The reaction mixture for the microbial enzyme simply consisted of 10 mM Tris buffer (pH 7.4). Incorporated fibronectin (Sigma-Aldrich, Poole, UK. Cat no. F0895) was used at concentrations of 5 μg/ml and 50 μg/ml. Transglutaminase was always added last to the collagen-reaction mix to minimise any self-imposed cross-linking. […]
Cross-linked and native samples of collagen were proteolytically digested by a modification of the methods of Griffin and Wilson (1984), which included an initial digestion with microbial collagenase (Clostridium histolyticum; 1 mg/ml, Sigma-Aldrich, Poole, UK. Cat no. C9891), prior to the addition of further proteases. […] Derivatisation was performed post column using o-pthaldialdehyde (0.8M boric acid, 0.78M potassium hydroxide, […] o-phthaldialdehyde, 0.5% (v/v) methanol, 0.75% (v/v) 2-mercaptoethanol, 0.35% (v/v) Brij 30) and the absorbance was measured at 450 nm. Dipeptide was determined by addition of known amounts of ε(γ-glutamyl)lysine to the sample and comparing peak areas.

[5] = 50 μg or 250 μg of TG, collagen 3 mg/ml, absorbance at 325 nm, 25° C., vs untreated

| Molecule | inhibition of the transglutaminase effects on fibrillogenesis ([1]; 500 μM inhibitor) | inhibition of the transglutaminase effects on fibrillogenesis ([2]; 500 μM inhibitor) | Activity of the transglutaminase used to pre-treat collagen for the cell experiments [3] [Units/mg] | Typical activities for the transglutaminases used [3] | time taken to achieve gel formation [1, 5] | amount of isopeptide formed, comparison in words [4] | time taken to achieve gel formation [2, 5] |
| --- | --- | --- | --- | --- | --- | --- | --- |
| C[S+](C)CC(=O)CC[C@H](NC(=O)[C@H](Cc1ccccc1)NC(=O)OCc1ccccc1)C(=O)O.[Br-] [R281, N-Benzyloxycarbonyl-L-phenylalanyl-6-dimethylsulfonium-5-oxo-L-nor-leucine bromide salt, reference compound] | abolished these effects | abolished these effects | – | – | – | – | – |
| B1 | – | – | 16000 | 16000-25000 Units/mg | significant reduction | much greater increase (almost two-fold) | significant reduction |
